Test results taken from article PMC2133975.
Values belong to the molecule of their own block, whether it stands above or below them.

How the values were obtained:
[1] = target: axonin-1, recombinant, expressed on the surface of COS-7 cells (chicken) (UniProt P28685); assay: binding of protein-conjugated fluorescent microspheres
[2] = target: NgCAM, recombinant, expressed on the surface of COS-7 cells (chicken); assay: as above

percent of expressing cells that bound Covaspheres [1]: 15%
percent of expressing cells that bound Covaspheres [2]: 61%
Molecule: NgCAM purified from chicken brain membranes, conjugated to Covaspheres (from UniProt Q03696 21-1266) (natural protein)

percent of expressing cells that bound Covaspheres [2]: 53%
B1: axonin-1 purified from the ocular vitreous fluid of chicken embryos, conjugated to Covaspheres (natural protein)
chain: QSGMRSYGPVFEEQPAHTLFPEGSAEEKVTLTCRARANPPATYRWKMNGTELKMGPDSRYRLVAGDLVISNPVKAKDAGSYQCVATNARGTVVSREASLRFGFLQEFSAEERDPVKITEGWGVMFTCSPPPHYPALSYRWLLNEFPNFIPADGRRFVSQTTGNLYIAKTEASDLGNYSCFATSHIDFITKSVFSKFSQLSLAAEDARQYAPSIKAKFPADTYALTGQMVTLECFAFGNPVPQIKWRKLDGSQTSKWLSSEPLLHIQNVDFEDEGTYECEAENIKGRDTYQGRIIIHAQPDWLDVITDTEADIGSDLRWSCVASGKPRPAVRWLRDGQPLASQNRIEVSGGELRFSKLVLEDSGMYQCVAENKHGTVYASAELTVQALAPDFRLNPVKRLIPAARSGKVIIPCQPRAAPKATVLWTKGTELLTNSSRVTITADGTLILQNISKSDEGKYTCFAENFMGKANSTGILSVRDATKITLAPSSADINVGENLTLQCHASHDPTMDLTFTWSLDDFPIDLDKSEGHYRRASVKEAVGDLAIVNAQLKHSGRYTCTAQTVVDSTSESATLTVRGPPGPPGGVVVRDIGDTTVQLSWSRGFDNHSPIARYSIEARTLLSNKWKQMRTNPVNIEGNAETAQVVNLIPWMDYEFRVLASNILGVGEPSLPSSKIRTKEAAPTVAPSGLGGGGGAPNELIINWTPTLRDYQNGDGFGYILSFRKKGTQGWLTARVPHAESLHYVYRNESIGPYTPFEVKIKAYNRKGEGPESLTAIVYSAEEEPKVAPFRVTAKAVLSSEMDVSWEPVEQGDMTGVLLGYEIRYWKDGDKEEAADRVRTAGLVTSAHVTGLNPNTKYHVSVRAYNRAGAGPPSPSTNITTTKPPPRRPPGNISWTLTGSTVTIKWDPVVAQADESAVTGYKMLYRQDSHSAPTLYLASKSRIDIPVPEDFTHAFVQIRVTGPGGDGTPAEVHIVRNSGTSMMVEDSVTRPVPHAAIITTNSLAMVALIRYLEL
